{
  "source": "IntAct's records for PubMed 23954414",
  "parents": {"B1": {"name": "Beclin-2 (Homo sapiens), A8MW95 (parent)", "chain": "MSSIRFLCQRCHQALKLSGSSESRSLPAAPAPTSGQAEPGDTREPGVTTREVTDAEEQQDGASSRSPPGDGSVSKGHANIFTLLGELGAMHMLSSIQKAAGDIFDIVSGQAVVDHPLCEECTDSLLEQLDIQLALTEADSQNYQRCLETGELATSEDEAAALRAELRDLELEEARLVQELEDVDRNNARAAADLQAAQAEAAELDQQERQHYRDYSALKRQQLELLDQLGNVENQLQYARVQRDRLKEINCFTATFEIWVEGPLGVINNFRLGRLPTVRVGWNEINTAWGQAALLLLTLANTIGLQFQRYRLIPCGNHSYLKSLTDDRTELPLFCYGGQDVFLNNKYDRAMVAFLDCMQQFKEEAEKGELGLSLPYGIQVETGLMEDVGGRGECYSIRTHLNTQELWTKALKFMLINFKWSLIWVASRYQK", "partner": "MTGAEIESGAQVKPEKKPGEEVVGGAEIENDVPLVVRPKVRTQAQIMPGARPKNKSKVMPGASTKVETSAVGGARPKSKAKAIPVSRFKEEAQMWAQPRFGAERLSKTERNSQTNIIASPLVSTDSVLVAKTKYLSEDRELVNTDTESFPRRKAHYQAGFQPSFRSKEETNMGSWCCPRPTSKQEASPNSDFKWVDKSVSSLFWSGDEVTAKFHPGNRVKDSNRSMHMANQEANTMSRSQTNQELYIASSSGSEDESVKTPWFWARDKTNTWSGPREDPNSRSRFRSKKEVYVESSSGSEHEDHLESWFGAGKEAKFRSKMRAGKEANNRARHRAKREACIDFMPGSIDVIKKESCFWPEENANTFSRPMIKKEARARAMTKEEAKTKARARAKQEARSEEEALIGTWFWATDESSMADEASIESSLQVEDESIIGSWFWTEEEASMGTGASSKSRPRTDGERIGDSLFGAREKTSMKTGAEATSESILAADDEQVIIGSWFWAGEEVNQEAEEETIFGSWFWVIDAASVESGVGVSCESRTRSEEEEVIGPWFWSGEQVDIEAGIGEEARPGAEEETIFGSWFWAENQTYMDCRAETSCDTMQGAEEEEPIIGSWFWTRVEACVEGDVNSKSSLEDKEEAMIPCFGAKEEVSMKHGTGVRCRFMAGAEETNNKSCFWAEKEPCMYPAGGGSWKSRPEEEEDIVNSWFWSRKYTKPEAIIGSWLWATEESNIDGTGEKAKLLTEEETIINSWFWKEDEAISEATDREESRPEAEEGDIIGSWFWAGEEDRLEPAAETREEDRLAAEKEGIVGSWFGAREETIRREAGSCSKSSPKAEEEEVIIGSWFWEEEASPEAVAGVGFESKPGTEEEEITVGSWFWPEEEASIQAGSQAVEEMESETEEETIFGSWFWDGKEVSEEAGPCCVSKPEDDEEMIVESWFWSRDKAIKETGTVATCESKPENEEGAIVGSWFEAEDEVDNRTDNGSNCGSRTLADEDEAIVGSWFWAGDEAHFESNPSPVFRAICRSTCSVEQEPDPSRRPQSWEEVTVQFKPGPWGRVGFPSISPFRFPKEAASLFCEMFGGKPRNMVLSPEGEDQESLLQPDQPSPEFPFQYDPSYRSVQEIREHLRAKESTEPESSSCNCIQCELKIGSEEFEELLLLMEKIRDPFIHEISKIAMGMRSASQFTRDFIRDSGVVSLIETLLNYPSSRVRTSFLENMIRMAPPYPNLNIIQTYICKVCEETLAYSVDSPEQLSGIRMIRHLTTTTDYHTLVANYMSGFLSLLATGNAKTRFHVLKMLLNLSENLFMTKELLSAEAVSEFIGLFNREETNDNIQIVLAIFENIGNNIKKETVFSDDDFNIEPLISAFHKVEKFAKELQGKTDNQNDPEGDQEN"}},
  "data": [
    {"variants_of": "B1", "details": "with gasp1_human GPRASP1, Q5JY77", "values": [
      {"variant": "I80S", "effect of a mutation on the interaction": "disrupting interaction strength"}
    ]}
  ]
}
